We go through one substance from US20200319189A1.

Experiment [1] concerns the target AGP from plasma of patients with hepatocellular carcinoma (HCC-AGP) (human) (UniProt P02763). The experiment is described as follows: standard lectin ELISA: antibody 058 coated, plasma 1:50, biotinylated S2 at 0.25 µg/mL for detection. On the technique in general: In an ELISA, binding on a coated surface is turned into a signal by an enzyme label.
Experiment [2] shares this target. The experiment is described as follows: reversed S2-ELISA, HCC-plasma sample against a normal sample (background); 5 µg/ml S2 coating.
Experiment [3] shares this target. The experiment is described as follows: reversed S2-ELISA: S2 coated at 5 µg/mL, plasma 1:50, detection with antibody 058.
Experiment [4] deals with desialylated AGP (dsAGP) (human) (UniProt P02763). The experiment is described as follows: reversed S2-ELISA: S2 coated at 5 µg/mL, dsAGP 2 µg/ml, detection with antibody 058.
Experiment [5] has the same target. The experiment can be described thus: standard lectin ELISA: antibody 058 coated, dsAGP 2 µg/ml, biotinylated S2 at 0.25 µg/mL for detection.

For the substance “S2-peptide (monovalent fucose-binding peptide; recombinant form of Aleuria aurantia lectin comprising only binding site 2) (from UniProt P18891 51-161)”, the signal to background ratio in experiment [1] was 1.05; in experiment [2], 10; in experiment [5], 1.38. Further, the signal to noise ratio in experiment [3] is 5.1; in experiment [4], 5.2.
